Reference: US5571894, “Recombinant antibodies specific for a growth factor receptor” (Ciba-Geigy Corporation, dated 1996)

B1: mouse monoclonal antibody FWP51 (antibody, V domains shown)
VH: QVQLQQSGAELVRPGTSVKLSCKASDYTFTSYWMNWVKQRPGQGLEWIGMIDPSDSETQYNQMFKDKAALTVDKSSNTAYMQLSSLTSEDSAVYYCAKGGASGDWYFDVWGQGTTVTVSS
VL: DIQLTQSPSSLSASLGGEVTITCKASQDIKKYIAWYQHKPGKSPRLLIHYTSVLQPGIPSRFSGSGSGRDYSFSIHNLEPEDIATYYCLHYDYLYTFGGGTKLEI
B2: mouse monoclonal antibody FRP5 (antibody, V domains shown)
VH: QVQLQQSGPELKKPGETVKISCKASGYPFTNYGMNWVKQAPGQGLKWMGWINTSTGESTFADDFKGRFDFSLETSANTAYLQINNLKSEDMATYFCARWEVYHGYVPYWGQGTTVTVSS
VL: DIQLTQSHKFLSTSVGDRVSITCKASQDVYNAVAWYQQKPGQSPKLLIYSASSRYTGVPSRFTGSGSGPDFTFTISSVQAEDLAVYFCQQHFRTPFTFGSGTKLEI

Assays:
[1] = target: 185 kD c-erbB-2 protein from SKBR3 cell lysates (human, UniProt P04626); assay: immunoprecipitation from SKBR3 extract, blot detected with antiserum 21N
human c-erbB-2 protein [2] = target: T1, human c-erbB-2 protein (human, UniProt P04626); assay: flow cytometry on SKBR3 cells
human c-erbB-2 protein [3] = target: T1, human c-erbB-2 protein; assay: immunofluorescent staining of fixed HC11 cells transfected with human c-erbB-2 (clone R1#11), non-transfected HC11 as control; screen of hybridoma supernatants

Binder | binding result [1] | binding result (human c-erbB-2 protein [2]) | binding result (human c-erbB-2 protein [3])
B1 | binds | binds | –
B2 | binds | – | binds
